Laboratory results from patent US20050053993A1, “Uses of an endothelial cell receptor” (priority 2002, published 2005).

Columns and labels:
[1] = system: endothelial cell migration; test: Endothelial cell migration induced by various angiogenesis inducers (FIG. 9A); type: cell-based, human; details: aFGF, bFGF, IL-8, PDGF, TGF-β and VEGF; rK5 400 pM (100 pM for VEGF, PDGF)
Procedure: FIG. 9A is a graph showing inhibition by rK5 of endothelial cell migration induced by a variety of angiogenesis inducers including aFGF, bFGF, IL-8, PDGF, TGF-β, VEGF, HGF and […] at concentrations of 50 ng/mL, 15 ng/mL, 40 ng/mL, 1 pg/mL, 100 pg/mL 40 ng/mL and 250 ng/mL respectively. The concentration of rK5 used was 400 pM except for VEGF (rK5=100 pM), PDGF (rK5=100 pM) and HGF (rK5=10 pM). Membranes were covered, fixed and stained and the number of cells that had migrated to the upper chamber per 10 high power field counted. Background migration to DME+0.1% BSA was subtracted and the data reported as the number of cells migrated per 10 high power fields (100×). […]
Endothelial cell migration assays: The effect of rK5 on endothelial cell migration was determined by two different methods. […] After 4 h, migrated cells were measured by fluorescence (Frevert C W, Wong V A, Goodman R B, Goodwin R, Martin T R. Rapid fluorescence-based measurement of neutrophil migration in vitro. J Immunol Methods. 1998 Apr. 1;213(1):41-52). […] Growth factors were used, where indicated, at concentrations determined in preliminary experiments to give equivalent migration responses of about 100 cells migrated/high powered field (400×). […] Membranes were recovered, fixed and stained and the number of cells that had migrated to the upper chamber per 10 high power fields counted. […]

LNCaP = test: Tumor cell proliferation, LNCaP; type: cell-based; details: 72 hours
Procedure: Cell Proliferation Assay. The effect of rK5 and rK5 peptides on endothelial cells were assessed using a proliferation assay with 1% BSA and 3 ng/ml bFGF in serum-free media. Relative cell numbers in each well of a 96 well microplate after incubation for 72 hours in the absence or presence of inhibitors were determined by using the AQueous cell proliferation assay (Promega, San Luis Obispo, Calif.). For all other cell lines tested for proliferation, minimal growth media was used (Cao, Y., Ji, R., Davidson, D., Schaller, J., Marti, D., Sohndel, S., McCance, S., O'Reilly, M., Llinas, M., and Folkman, J. Kringle domains of human angiostatin. Characterization of the anti-proliferative activity on endothelial cells. (1996) J. Biol. Chem. 271, 29461-29467). Results are presented as the percent inhibition of control cell (bFGF-induced) proliferation.

[2] = target: T1, recombinant human GRP78 (rGRP78) (Homo sapiens, UniProt P11021); test: Equilibrium dialysis of rGRP78 and 3HK5; type: binding; details: competition dialysis, 2 nM GRP78 and 2 nM 3HK5; mutant up to 25-fold excess of GRP78
T1 construct: host or cells: yeast
T1 sequence (P11021 19-654): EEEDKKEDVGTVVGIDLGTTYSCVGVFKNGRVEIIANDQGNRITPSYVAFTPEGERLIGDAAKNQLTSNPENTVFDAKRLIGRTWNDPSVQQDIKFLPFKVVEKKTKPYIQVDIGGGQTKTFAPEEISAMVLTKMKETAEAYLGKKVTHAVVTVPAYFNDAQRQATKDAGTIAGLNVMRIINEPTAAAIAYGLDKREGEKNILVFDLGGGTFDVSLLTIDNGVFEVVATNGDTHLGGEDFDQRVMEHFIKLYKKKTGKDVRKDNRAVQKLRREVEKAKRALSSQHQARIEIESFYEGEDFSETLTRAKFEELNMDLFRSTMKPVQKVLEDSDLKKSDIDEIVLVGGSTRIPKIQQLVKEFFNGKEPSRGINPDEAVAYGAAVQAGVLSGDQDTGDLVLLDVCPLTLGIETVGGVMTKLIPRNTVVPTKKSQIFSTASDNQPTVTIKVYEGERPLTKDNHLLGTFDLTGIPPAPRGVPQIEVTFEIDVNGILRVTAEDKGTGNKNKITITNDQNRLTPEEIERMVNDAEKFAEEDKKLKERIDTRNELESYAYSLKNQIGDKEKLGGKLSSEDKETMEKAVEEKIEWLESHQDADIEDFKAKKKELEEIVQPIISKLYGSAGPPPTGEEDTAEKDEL
Procedure: FIG. 14A is a graph showing equilibrium dialysis of recombinant GRP78 (rGRP78) and ^3HK5. ^3HK5 was added to one side of an equilibrium chamber at concentrations from 0.1 to 3 nM. 2 nM GRP78 was added to the other side of the chamber with a […] mwco filter between. ^3HK5 was allowed to equilibrate to both side of the chamber for 72 hours at room temperature. The amount of ^3HK5 on the GRP78 side of the chamber was compared to chamber with ^3HK5 alone to obtain the bound verses free rK5 distribution.
FIG. 14B is a graph showing competition binding dialysis rGRP78 and ^3HK5. Experiments were performed with 2 nM GRP78 and 2 nM ^3HK5 using rK5(K82A) mutant and unlabeled rK5 at various concentrations from 0.5 to 50 nM. The amount of ^3HK5 on both sides of the chamber was measured after 72 hours and compared to the control.
Binding of rK5 to rGRP78 was measured using equilibrium dialysis (Kariv I, Cao H, Oldenburg K R. Development of a high throughput equilibrium dialysis method. J Pharm Sci. 2001 May; 90(5):580-87). In the top well of a 96 well equilibrium dialyzer (molecular weight cut off 50K Daltons, Harvard Apparatus, Holliston, M A) 150 μl of 10 nM rGRP78 was added. In the reciprocal (bottom) chamber, 150 μl of increasing concentrations from 0.1 to 50 nM ^3HK5 was added. The chambers were shaken at room temperature for 72 hours. […]

tumor cell lines = test: Apoptosis of various tumor cell lines under hypoxia; type: cell-based; details: 500 nM rK5, hypoxia overnight; exceptions Lewis Lung and PC-3
Procedure: FIG. 15B is a graph showing the effect of rK5 on induction of apoptosis in various tumor cell lines tested under hypoxic conditions. Cells were plated in 96-well plates overnight. Half the plates were put in hypoxic chambers overnight at 37° C. with and without 500 nM rK5. Increased apoptosis was shown by an ELISA technique that measures the number of nucleosome fragments. The apoptotic index was calculated from the apoptosis rate of control cells (without K5 and with or without hypoxia). The samples were run in quadruplicate.

IC50 values for cell proliferation (LNCaP): >100 µg/mL | blocking of 3HK5 binding to rGRP78 [2]: blocked
B1: rK5: recombinant kringle 5 fragment of human plasminogen (residues 450-543), expressed in E. coli or yeast (protein)
chain: LLPDVETPSEEDCMFGNGKGYRGKRATTVTGTPCQDWAAQEPHRHSIFTPETNPRAGLEKNYCRNPDGDVGGPWCYTTNPRKLYDYCDVPQCAA
inhibition of endothelial cell migration induced by inducers of angiogenesis [1]: inhibited | induction of apoptosis in tumor cell lines under hypoxic conditions (tumor cell lines): induced apoptosis in 8 out of 10 tumor cell lines
